Consider one molecule from paper PMC10388305, “Synthesis and Evaluation of a Monomethyl Auristatin E—Integrin αvβ6 Binding Peptide–Drug Conjugate for Tumor Targeted Drug Delivery” (Journal of Medicinal Chemistry, 2023).

Data set [1] can be described thus: Blocking biodistribution, BxPC-3 model. In kind it is in vivo, mice. The conditions noted are these: female, athymic nude, mouse, iv, total radioactivity, 4 h p.i., DOTA-2 (50 mg/kg, 205 nmol) i.v. 10 min prior, γ-counter, mean ± SD, n = 2. Here is the method: Aliquots of the formulated [^64Cu]PDC-1 in isotonic 0.9% saline (4.81–5.74 MBq, 1.7–2.1 μg, 0.26–0.31 nmol, 100 μL, pH 7.2) were injected i.v. as described above. Following the conscious uptake period, the mice were anesthetized (5% isoflurane), euthanized, and dissected (n ≥ 3/model/time point [4, 24, and 48 h]; the 48 h time point also included the imaging animals sacrificed after the PET scans). Tissues were collected, washed, weighed, and radioactivity measured in a γ-counter. Calibrated, decay-corrected radioactivity was expressed as the percentage of injected dose per gram of tissue (% ID/g). Data are reported as mean ± SD. The mean weights and standard deviation of the DX3puroβ6/DX3puro paired tumor model biodistribution mice were 24.3 ± 1.4 g at 4 h, 28.2 ± 2.9 g at 24 h, and 27.7 ± 2.6 g at 48 h. The mean weights and standard deviation of the BxPC-3 tumor model biodistribution mice were 25.1 ± 1.9 g at 4 h, 27.0 ± 1.1 g at 24 h and 27.1 ± 3.2 g at 48 h. For in vivo blocking studies, DOTA-2 (50 mg/kg, 205 nmol, 1.4 mg in 100 μL 0.9% saline) was injected i.v. into two animals/tumor model 10 min prior to [^64Cu]PDC-1. The animals were sacrificed after 4 h, tissues collected, washed, weighed, and radioactivity measured in a γ-counter. The mean weights and standard deviation for the blocking mice were 24.6 ± 0 and 27.9 ± 0.3 g for the DX3puroβ6/DX3puro paired and BxPC-3 tumor models, respectively.
Blocking biodistribution data of [64Cu]PDC-1 in paired DX3puroβ6/DX3puro and BxPC-3 tumor models.
Tumor Model DX3puroβ6/DX3puro BxPC-3
Table S6. Blocking biodistribution data of [ 64Cu]PDC-1 in paired DX3puroβ6/DX3puro and BxPC-3 tumor
models. Tissue uptake is expressed as the mean of the percentage of injected dose per gram of tissue ±
SD (n = 2/model, n/a = not applicable. P = 0.53 for DX3puroβ6 vs. DX3puro; P = 0.52 for BxPC-3 vs.

The subject of another data set is DX3puroβ6 (+) cells. The experiment in a line: Cell binding assay, DX3puroβ6. In kind it is cell-based. As to conditions: 1 h, 37 °C, γ-counter, n = 3. The source says: Binding to cells with minimal to no expression of integrin αvβ6 was low at 4.4 ± 0.1% to DX3puro cells and 7.9 ± 0.4% to pancreatic MIA PaCa-2 cells. Binding of [^64Cu]PDC-1 to DX3puroβ6 (+) and BxPC-3 (+) was reduced by adding increasing amounts of DOTA-PDC-1, illustrating that the αvβ6-selective uptake could be blocked (Figure S3). Internalization of [^64Cu]-PDC-1 into cells was high with >50% of the bound radioactivity internalized for all cells expressing the integrin αvβ6. In comparison, cell binding of [^64Cu]2 to DX3puroβ6 (+) cells was 58.8 ± 2.3, and 3.3 ± 0.4% to the DX3puro (−) cells.
Cell binding and internalization assay. Binding and internalization were determined as previously described. […] The fraction of bound radioactivity was determined with a γ-counter (by measuring cell pellet and combined supernatants). To determine the fraction of internalized radioactivity, the cells were re-pelleted, and re-suspended in acidic wash buffer (0.2 M sodium acetate, 0.5 M sodium chloride, pH = 2.5, 300 μL, 4 °C, 5 min) to release surface bound activity, followed by a wash with PBS (300 μL). The internalized fraction was determined with a γ-counter (cell pellet vs. radioactivity released into supernatant). A Wizard 1470 or Wizard 2 2470 automatic γ-counter (Perkin-Elmer, Waltham, MA) was used to measure radioactivity samples. […]

The structures appear in SMILES notation. Like-named read-outs stand apart in the source and are kept apart here.

Regarding `CC[C@H](C)[C@@H]([C@@H](CC(=O)N1CCC[C@H]1[C@H](OC)[C@@H](C)C(=O)N[C@H](C)[C@@H](O)c1ccccc1)OC)N(C)C(=O)[C@@H](NC(=O)[C@H](C(C)C)N(C)C(=O)OCc1ccc(NC(=O)[C@H](CCCNC(N)=O)NC(=O)[C@@H](NC(=O)CCOCCOCCNC(=O)CCN2C(=O)CC(SC[C@H](NC(=O)CN3CCN(CC(=O)O)CCN(CC(=O)O)CCN(CC(=O)O)CC3)C(=O)NCCOCCOCCOCCOCCOCCOCCOCCOCCOCCOCCOCCOCCOCCOCCOCCOCCOCCOCCOCCOCCOCCOCCOCCOCCOCCOCCOCCOCCC(=O)N[C@@H](CC(N)=O)C(=O)N[C@@H](C)C(=O)N[C@H](C(=O)N3CCC[C@H]3C(=O)N[C@@H](CC(N)=O)C(=O)N[C@@H](CC(C)C)C(=O)N[C@@H](CCCNC(=N)N)C(=O)NCC(=O)N[C@@H](CC(=O)O)C(=O)N[C@@H](CC(C)C)C(=O)N[C@@H](CCC(N)=O)C(=O)N[C@H](C(=O)N[C@@H](CC(C)C)C(=O)N[C@@H](C)C(=O)N[C@@H](CCC(N)=O)C(=O)N[C@@H](CCCNC(=N)N)C(=O)N[C@H](C(=O)N[C@@H](C)C(=O)N[C@@H](CCCNC(=N)N)C(=O)N[C@H](C(=O)NCCOCCOCCOCCOCCOCCOCCOCCOCCOCCOCCOCCOCCOCCOCCOCCOCCOCCOCCOCCOCCOCCOCCOCCOCCOCCOCCOCCOCCC(N)=O)[C@@H](C)O)C(C)C)C(C)C)C(C)C)C2=O)C(C)C)cc1)C(C)C` (some centres unmarked) [[^64Cu]PDC-1, metal not drawn], the tissue uptake at 4 h was 0.61 ± 0.05 %ID/g in data set [1] (BxPC-3 (αvβ6 +) tumor, read-out: Tumor (αvβ6 +) BxPC-3 uptake, blocked); 0.1 ± 0.02 %ID/g in data set [1] (blood, read-out: Blood uptake, blocked); 0.14 ± 0.03 %ID/g in data set [1] (bone, read-out: Bone uptake, blocked); 0.01 ± 0.01 %ID/g in data set [1] (brain, read-out: Brain uptake, blocked); 0.94 ± 0.35 %ID/g in data set [1] (gall bladder, read-out: Gall Bladder uptake, blocked); 0.21 ± 0.06 %ID/g in data set [1] (heart, read-out: Heart uptake, blocked). For the same molecule, the tissue uptake at 4 h was found to be 25.7 ± 2.55 %ID/g in data set [1] (kidney, read-out: Kidney uptake, blocked); 0.47 ± 0.08 %ID/g in data set [1] (large intestines, read-out: Large Intestines uptake, blocked); 1.01 ± 0.16 %ID/g in data set [1] (liver, read-out: Liver uptake, blocked); 0.51 ± 0.16 %ID/g in data set [1] (lung, read-out: Lung uptake, blocked); 0.07 ± 0.01 %ID/g in data set [1] (muscle, read-out: Muscle uptake, blocked); 0.12 ± 0.01 %ID/g in data set [1] (pancreas, read-out: Pancreas uptake, blocked). Moreover, the tissue uptake at 4 h turned out to be 0.31 ± 0.02 %ID/g in data set [1] (skin, read-out: Skin uptake, blocked); 0.51 ± 0.09 %ID/g in data set [1] (small intestines, read-out: Small Intestines uptake, blocked); 0.22 ± 0.03 %ID/g in data set [1] (spleen, read-out: Spleen uptake, blocked); 0.38 ± 0.04 %ID/g in data set [1] (stomach, read-out: Stomach uptake, blocked). Besides, in the data set with DX3puroβ6 (+) cells, the Cell binding is 67.0 ± 2.3%.
